Paper PMC6796912

Key:
[1] = biological target: Saccharomyces cerevisiae Tel1 (TEL1-FLAG), endogenously purified (S. cerevisiae) (UniProt P38110); test: cryo-EM structure; Tel1-FLAG purified from S. cerevisiae, 20–50 μg/mL in 20 mM HEPES pH 8.0, 40 mM KOAc, 5 mM MgCl2, 0.1% trehalose, 2 mM DTT, 0.01% NP-40; symmetric dimer (C2, 4.1 Å) and asymmetric dimer (4.3 Å) classes
[2] = biological target: GST-Xrs2 (full-length S. cerevisiae Xrs2) (S. cerevisiae) (UniProt P33301); test: pull-down; glutathione sepharose saturated with full-length GST-Xrs2 added to lysates of yeast expressing wild-type or mutant Tel1; 2 h at 4 °C, washed 3 times with lysis buffer; immunoblot with anti-PAP antibody
Chain of GST-Xrs2 (full-length S. cerevisiae Xrs2) (S. cerevisiae) (P33301 whole entry): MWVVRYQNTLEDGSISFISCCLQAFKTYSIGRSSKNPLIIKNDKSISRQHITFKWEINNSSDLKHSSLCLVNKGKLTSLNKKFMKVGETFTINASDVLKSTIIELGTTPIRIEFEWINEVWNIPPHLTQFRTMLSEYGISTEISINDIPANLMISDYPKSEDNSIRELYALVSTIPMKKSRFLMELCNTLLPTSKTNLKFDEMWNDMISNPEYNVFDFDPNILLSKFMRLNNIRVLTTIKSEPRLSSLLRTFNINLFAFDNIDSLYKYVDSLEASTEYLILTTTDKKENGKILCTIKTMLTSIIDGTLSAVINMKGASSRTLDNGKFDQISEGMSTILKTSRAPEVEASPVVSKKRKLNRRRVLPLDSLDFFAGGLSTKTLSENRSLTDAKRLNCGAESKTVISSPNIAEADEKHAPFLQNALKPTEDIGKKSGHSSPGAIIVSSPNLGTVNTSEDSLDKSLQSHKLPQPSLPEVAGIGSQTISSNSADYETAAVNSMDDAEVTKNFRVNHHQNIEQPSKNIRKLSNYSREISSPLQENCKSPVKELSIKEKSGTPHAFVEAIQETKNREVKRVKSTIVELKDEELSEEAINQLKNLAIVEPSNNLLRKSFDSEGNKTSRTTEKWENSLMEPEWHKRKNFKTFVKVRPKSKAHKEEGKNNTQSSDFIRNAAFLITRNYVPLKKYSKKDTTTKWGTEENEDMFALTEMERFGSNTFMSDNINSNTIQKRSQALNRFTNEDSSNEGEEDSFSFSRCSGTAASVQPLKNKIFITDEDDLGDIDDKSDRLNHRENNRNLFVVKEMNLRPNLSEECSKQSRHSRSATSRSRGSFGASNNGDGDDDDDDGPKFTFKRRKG

stoichiometry N [1] | decrease of Xrs2 binding against wild-type Tel1 [2] [%] | Substance
2 | – | Saccharomyces cerevisiae Tel1 (TEL1-FLAG), endogenously purified, P38110 1-2787
– | 100 | Tel1 K2751E (TAP-tagged), P38110 1-2787
